For the assay, the target named is purified folded MHC-complex (Example 34, allele and peptide not stated). As to the kind of experiment: sandwich ELISA, W6/32 coated, HRP rabbit anti-β2m detection.

For the substance “W6/32 mouse-anti-HLA-ABC antibody (Dako M0736)”, the fold of OD450 against the negative control β2m was over 6 fold.

These data come from patent US20110236411A1.
